One protein from PMC4385502 (Molecular cell, 2015) can be followed below.

The data set concerns the molecule itself. In words: SEC. On the technique in general: In gel filtration, larger molecules generally elute earlier.

B1: RIG-I-TD (RIG-I triple deamidation mutant) (natural protein)
chain: MTTEQRRSLEAFQDYIRKTLDPTYILSYMAPWFREEEVQYIQAEKNNKGPMEAATLFLKFLLELQEEGWFRGFLDALDHAGYSGLYEAIESWDFKKIEKLEEYRLLLKRLQPEFKTRIIPTDIISDLSECLINQECEEILQICSTKGMMAGAEKLVECLLRSDKENWPKTLKLALEKERNKFSELWIVEKGIKDVETEDLEDKMETSDIQIFYQEDPECQNLSENSCPPSEVSDTNLYSPFKPRDYQLELALPAMKGKNTIICAPTGCGKTFVSLLICEHHLKKFPQGQKGKVVFFANQIPVYEQQKSVFSKYFERHGYRVTGISGATAENVPVEQIVENNDIIILTPQILVNNLKKGTIPSLSIFTLMIFDECHNTSKQHPYNMIMFNYLDQKLGGSSGPLPQVIGLTASVGVGDAKNTDEALDYICKLCASLDASVIATVKHDLEELEQVVYKPQKFFRKVESRISDKFKYIIAQLMRDTESLAKRICKDLENLSQIQNREFGTQKYEQWIVTVQKACMVFQMPDKDEESRICKALFLYTSHLRKYNDALIISEHARMKDALDYLKDFFSNVRAAGFDEIEQDLTQRFEEKLQELESVSRDPSNENPKLEDLCFILQEEYHLNPETITILFVKTRALVDALKNWIEGNPKLSFLKPGILTGRGKTNQNTGMTLPAQKCILDAFKASGDHNILIATSVADEGIDIAQCNLVILYEYVGNVIKMIQTRGRGRARGSKCFLLTSNAGVIEKEQINMYKEKMMNDSILRLQTWDEAVFREKILHIQTHEKFIRDSQEKPKPVPDKENKKLLCRKCKALACYTADVRVIEECHYTVLGDAFKECFVSRPHPKPKQFSSFEKRAKIFCARQNCSHDWGIHVKYKTFEIPVIKIESFVVEDIATGVQTLYSKWKDFHFEKIPFDPAEMSK
Take B1: the binding result was “binds”.
